This note sets out measurements from US20250313611A1 (VIB VZW, published 2025).

Experiment [1] deals with T1, SARS-COV-2 RBD (His-tagged, Sinobiologicals) (SARS-CoV-2 (Wuhan), UniProt P0DTC2 319-541). Put plainly: ELISA, periplasmic extract 1/10, OD450 antigen/OD450 BSA [B].
The target in experiment [2] is T2, MERS-COV spike expressed on transfected cells (MERS-CoV, UniProt K9N5Q8 18-1353).
T2 sequence: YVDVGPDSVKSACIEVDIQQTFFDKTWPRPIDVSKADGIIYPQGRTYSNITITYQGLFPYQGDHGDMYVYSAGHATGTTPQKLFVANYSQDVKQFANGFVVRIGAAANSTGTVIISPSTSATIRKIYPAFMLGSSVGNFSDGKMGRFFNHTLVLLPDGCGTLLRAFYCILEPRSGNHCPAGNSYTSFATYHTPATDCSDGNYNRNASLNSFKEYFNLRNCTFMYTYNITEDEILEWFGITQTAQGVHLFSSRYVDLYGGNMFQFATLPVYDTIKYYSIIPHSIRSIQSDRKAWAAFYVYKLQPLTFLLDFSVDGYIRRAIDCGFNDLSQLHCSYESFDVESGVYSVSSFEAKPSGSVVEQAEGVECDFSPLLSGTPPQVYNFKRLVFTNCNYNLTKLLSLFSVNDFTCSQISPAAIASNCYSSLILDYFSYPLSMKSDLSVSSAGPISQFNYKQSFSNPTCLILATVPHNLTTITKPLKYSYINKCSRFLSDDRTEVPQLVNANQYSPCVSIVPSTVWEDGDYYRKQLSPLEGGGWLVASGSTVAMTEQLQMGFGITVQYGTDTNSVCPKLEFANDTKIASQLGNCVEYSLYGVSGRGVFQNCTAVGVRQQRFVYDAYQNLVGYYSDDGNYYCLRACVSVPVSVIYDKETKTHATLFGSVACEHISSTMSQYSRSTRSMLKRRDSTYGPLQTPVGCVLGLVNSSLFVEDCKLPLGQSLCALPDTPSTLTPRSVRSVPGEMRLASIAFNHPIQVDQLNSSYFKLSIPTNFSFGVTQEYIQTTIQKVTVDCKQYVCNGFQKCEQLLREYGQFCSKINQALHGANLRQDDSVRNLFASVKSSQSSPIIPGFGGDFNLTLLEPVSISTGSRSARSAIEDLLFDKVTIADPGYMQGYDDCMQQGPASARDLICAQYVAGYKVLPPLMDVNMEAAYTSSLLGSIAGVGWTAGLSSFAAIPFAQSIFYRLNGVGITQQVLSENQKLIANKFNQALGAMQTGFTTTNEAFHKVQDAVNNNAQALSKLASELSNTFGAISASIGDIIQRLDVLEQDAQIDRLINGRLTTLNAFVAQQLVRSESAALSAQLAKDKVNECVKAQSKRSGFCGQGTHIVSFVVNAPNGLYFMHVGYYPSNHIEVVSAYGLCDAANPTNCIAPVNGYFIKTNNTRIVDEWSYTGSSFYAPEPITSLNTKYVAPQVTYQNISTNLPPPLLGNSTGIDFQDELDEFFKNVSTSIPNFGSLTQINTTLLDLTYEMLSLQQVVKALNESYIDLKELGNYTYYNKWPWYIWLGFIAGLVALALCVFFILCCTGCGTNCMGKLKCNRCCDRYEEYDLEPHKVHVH
The experiment in a line: flow cytometry, transfected HEK cells, MFI GFP+/GFP- cells [1/3]. For orientation: A flow cytometer gives signals particle by particle.

Experiment [3] has as its target T2, MERS-COV spike expressed on transfected …. The experiment in a line: flow cytometry, transfected HEK cells, MFI GFP+/GFP- cells [3/3].
Experiment [4] concerns the target T1, SARS-COV-2 RBD (His-tagged, …). The experiment in a line: ELISA, periplasmic extract 1/10, OD450 antigen/OD450 BSA [D00002 FIG. 1 cont. D]. On the technique in general: ELISA stands for enzyme-linked immunosorbent assay.
The target in experiment [5] is T2, MERS-COV spike expressed on transfected …. The experiment in a line: flow cytometry, transfected HEK cells, MFI GFP+/GFP- cells [2/3].
The target of experiment [6] is T1, SARS-COV-2 RBD (His-tagged, …). The experiment in a line: ELISA, periplasmic extract 1/10, OD450 antigen/OD450 BSA [D00002 FIG. 1 cont. D]. The source holds these as a separate data set.
Another experiment deals with T3, BSA (bovine, UniProt P02769).
T3 construct: coated control antigen
T3 sequence (P02769 25-607 limits assumed): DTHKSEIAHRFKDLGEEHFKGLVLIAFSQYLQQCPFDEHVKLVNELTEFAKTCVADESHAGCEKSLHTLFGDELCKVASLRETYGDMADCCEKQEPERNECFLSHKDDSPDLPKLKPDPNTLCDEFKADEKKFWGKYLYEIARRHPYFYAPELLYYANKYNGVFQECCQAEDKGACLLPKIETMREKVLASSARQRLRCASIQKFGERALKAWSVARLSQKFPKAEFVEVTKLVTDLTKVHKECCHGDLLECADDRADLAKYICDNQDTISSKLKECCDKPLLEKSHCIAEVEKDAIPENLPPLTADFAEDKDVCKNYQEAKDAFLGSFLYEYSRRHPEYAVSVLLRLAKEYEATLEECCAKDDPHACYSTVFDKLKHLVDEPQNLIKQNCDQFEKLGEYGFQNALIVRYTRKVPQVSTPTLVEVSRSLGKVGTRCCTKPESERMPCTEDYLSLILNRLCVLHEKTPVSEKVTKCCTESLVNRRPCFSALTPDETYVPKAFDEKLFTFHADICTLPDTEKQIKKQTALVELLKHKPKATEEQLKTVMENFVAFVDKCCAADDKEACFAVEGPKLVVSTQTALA
Put plainly: ELISA, coated BSA, dilution series, OD450 [3/3].

Experiment [7] addresses T1, SARS-COV-2 RBD (His-tagged, …). The experiment in a line: ELISA, coated antigen, dilution series, OD450 [3/3].
Experiment [8] has the same target. The experiment in a line: ELISA, coated antigen, dilution series, OD450 [1/3].

B1: VHH R3_C4 (VHH)
VHH: QVQLQESGGGLVQAGDSLRLSCAVSGRPFSTYTMGWFRQAPGKEREFVAAMRWSGGTIYYADSVKGRFTISRDNDKNTVNLEMNSLKPEDTAVYYCAAAYVSKANYGSLWYRASGLYDYWGQGTQVTVSS
Take B1: the binding result in experiment [1] was “no binding (tested: extract 1/10, concentration not given)”; in [2], “no binding (tested: not given)”.

B2: VHH R4_DC16 (VHH)
VHH: QVQLQESGGGLVQAGDSLRLSCAVSGRPFSTYTMGWFRQAPGKEREFVAAMRWSGGTIYYADSVKGRFTISRDNAQNTVNLQMNSLKPEDTAVYYCAAAYVSKANYGSSWYRNSGLYDYWGQGTQVTVSS
For the molecule B2, the binding result in experiment [3] is “no binding (tested: not given)”; in [4], “no binding (tested: extract 1/10, concentration not given)”.

B3: VHH R4_DC13 (VHH)
VHH: QVQLQESGGGLVQTGDSLRLSCAVSGRPFSTYTMGWFRQAPGKEREFVASMRWSGGTVYYSDSVKGRFTISRDNDKNTVNLQMNNLKPEDTAVYYCAAAYVSKANYGSFWYRNSDLYDYWGQGTQVTVSS
For B3, the binding result in experiment [5] is listed as “no binding (tested: not given)”; in experiment [6] it was “no binding (tested: extract 1/10, concentration not given)”.

B4: VHH R3_DC2 (VHH)
VHH: QVQLQESGGGLVQTGDSLRLSCAVSGRPFSTYTMGWFRQAPGKEREFVASMRWSGGTKYYSDSVKGRFSISRDNDQNTVNLQMNSLKPEDTAVYYCAAAYVSKANYGSLWYRNSGLYDYWGQGTQVTVSS
As to B4, the binding result in [2] is on record as “no binding (tested: not given)”.

B5: VHH R4_DC9 (VHH)
VHH: QVQLQESGGGLVQAGDSLRLSCAASGRIFSTYTMGWFRQAPGMEREFVAAIRWSGSTVYYADSVKGRFTISRDNAKNTVYLQMNSLKPEDTAVYYCAAARVSKANYGTLWYRASGLYDYWGQGTQVTVSS
B5: the binding result in experiment [5] was “no binding (tested: not given)”; in the experiment with BSA it was “no binding (tested: 10 µg/ml)”; in experiment [7], “no binding (tested: 10 µg/ml)”.

B6: VHH R3_DC9 (VHH)
VHH: QVQLQESGGGLVQTGDSLRLSCAVSGRPFSTYTMGWFRQAPGKEREFVASMRWSGGTMYYSDSVKGRFTISRDNDKNTVNLQMNSLKPEDTAVYYCAAAYVSKANYGSLWYRNSGLYDYWGQGTQVTVSS
For the molecule B6, the binding result in experiment [2] is recorded as “no binding (tested: not given)”.

B7: VHH R3_DC20 (VHH)
VHH: QVQLQESGGGLVQAGDSLRLSCAVSGRPFSTYTMGWFRQAPGKEREFVAAMRWSGGTIYYADSVKGRFTISRDNAQNTVNLQMNSLEPEDTAVYYCAAAYVSKANYGSLWYRNSGLYDYWGQGTQVTVSS
For the molecule B7, in experiment [2], the binding result is “no binding (tested: not given)”.

B8: VHH R4_DC20 (VHH)
VHH: QVQLQESGGGLVQTGDSLRLSCAVSGRPFSTYTMGWFRQAPGKEREFVASMRWSGGTMNYADSVKGRFTISRDNDQNTVNLQMNSLKPEDTAVYYCAAAYVSKANYGSLWYRNSGLYDYWGQGTQVTVSS
On to B8, for which the binding result is given as “no binding (tested: not given)” in experiment [3] and “no binding (tested: 10 µg/ml)” in [8].

B9: VHH R4_DC6 (VHH)
VHH: QVQLQESGGGLVQAGDSLRLSCAASGRILSTFTMGWFRQAPGKEREFVAAMRWNGGTKNYADSVKGRFTISRDNANSVVYLQMNSTKPEDTAVYYCAAAYVSKANYGSLWYRTPSLYDYWGQGTQVTVSS
Consider B9, for which the values for the binding result (in experiment [5]; with BSA; in [7]) were “no binding (tested: not given)”, “no binding (tested: 10 µg/ml)” and “no binding (tested: 10 µg/ml)”, respectively.

B10: VHH R3_DC23 (VHH)
VHH: QVQLQESGGGLVQAGDSLTLSCAVSGRIFSTYTMGWFRQAPGKEREFVAAVRWGAGTIYYADSMKGRFTISRDSAKNTVDLQMNSTKPEDTAVYYCGAAYVSKANYGSLWYQDSRRYDYWGQGTQVTVSS
For B10, the binding result in experiment [5] is given as “no binding (tested: not given)”; in [8] it was “no binding (tested: 10 µg/ml)”.
